In publication doi:10.1101/2020.10.19.345710 (bioRxiv, 2020):
Where a chain is given by its changes, count along the chain named. Names may count otherwise.

B1: FUS LC, low complexity domain of Fused in sarcoma (FUS), residues 1-163 (domain or fragment, UniProt P35637 1-163, looked up)
chain: MASNDYTQQATQSYGAYPTQPGQGYSQQSSQPYGQQSYSGYSQSTDTSGYGQSSYSSYGQSQNTGYGTQSTPQGYGSTGGYGSSQSSQSSYGQQSSYPGYGQQPAPSSTSGSYGSSSQSSSYGQPQSGSYSQQPSYGGQQQSYGQQQSYNPPQGYGQQNQYNS
B2: FUS LC G156E, low complexity domain of FUS (residues 1-163) with the pathogenic G156E mutation (domain or fragment, UniProt P35637 1-163, looked up)
chain: B1 chain with G156E

Target: the molecule itself
Assay: thioflavin T fluorescence

Row | Protein | binding result
1 | B1 | binds
2 | B2 | binds
